For the experiment, the target named is T1, alpha-fetoprotein, P02771.
T1 chain: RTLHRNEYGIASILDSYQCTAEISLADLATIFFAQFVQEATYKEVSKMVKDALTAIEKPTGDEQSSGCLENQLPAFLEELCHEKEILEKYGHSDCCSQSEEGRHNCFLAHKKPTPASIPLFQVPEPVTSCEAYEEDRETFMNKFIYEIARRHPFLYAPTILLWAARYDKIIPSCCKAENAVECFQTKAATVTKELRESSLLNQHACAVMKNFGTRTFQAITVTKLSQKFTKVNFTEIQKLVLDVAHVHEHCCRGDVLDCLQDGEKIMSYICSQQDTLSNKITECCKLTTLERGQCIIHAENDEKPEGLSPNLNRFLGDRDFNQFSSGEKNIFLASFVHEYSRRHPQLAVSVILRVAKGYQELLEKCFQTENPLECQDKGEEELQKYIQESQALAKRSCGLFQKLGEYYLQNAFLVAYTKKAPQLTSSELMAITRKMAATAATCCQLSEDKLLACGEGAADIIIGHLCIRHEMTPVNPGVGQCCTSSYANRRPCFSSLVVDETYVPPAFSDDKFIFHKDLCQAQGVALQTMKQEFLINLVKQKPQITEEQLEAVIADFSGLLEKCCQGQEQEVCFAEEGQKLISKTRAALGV
Description: native gel or EMSA; native 10% PAGE without SDS of calibrator S1 of VIDAS AFP, 150 V, running buffer 0.025 M TRIS-Base pH 8.3, 0.192 M glycine, Coomassie Blue staining. As to conditions: remark: other sources report otherwise.

Where “and” joins values, the source holds several entries; their conditions need not be identical. Equal values may be shown once.

B1: alpha-fetoprotein, P02771 19-609 (natural protein)
chain: T1 chain
B1: the stoichiometry N is 2 and 3 and 4.

The record behind these values is publication PMC8699147.
